The target in assay [1] is T1, human hepcidin-25 (human, not fully specified).
T1 construct: also called human mature hepcidin
T1 peptide: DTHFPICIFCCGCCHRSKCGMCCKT
The assay is described as follows: SPR (BIAcore), Fab captured on goat anti-human kappa, human hepcidin-25 injected, 25 C.
Experimental: (§1) Except as noted, all reagents and materials are purchased from BIAcore® AB (Upsala, Sweden). All measurements are performed at 25° C. Samples are dissolved in HBS-EP buffer (150 mM sodium chloride, 3 mM EDTA, 0.05% (w/v) surfactant P-20, and 10 mM HEPES, pH 7.4). To capture Fabs with human kappa, goat-anti-human kappa is immobilized on flow cells 1 to 4 of a CM5 sensor chip at a level of 5000-10000 response units (Rus) using an amine coupling kit. To capture Mabs with mouse IgG1, goat-anti-mouse Fc gamma is immobilized on flow cells 1 to 4 of a CM5 sensor chip at a level of 5000-10000 Rus using an amine coupling kit. To capture antibodies with human IgG4, protein A is immobilized on flow cells 1 to 4 of a CM4 sensor chip at a level of 400-700 Rus using an amine coupling kit. Fabs prepared from E. coli periplasma and Mabs prepared from mammalian cell culture are evaluated using multiple analytical cycles. […] The measurements are obtained at 25° C. and the association and dissociation rates for each cycle are evaluated using a “1:1 with mass transfer” binding model in the BLAevaluation software.

For assay [2], the target named is T1, human hepcidin-25. The assay is described as follows: SPR (BIAcore), Mab captured on protein A, human hepcidin-25 injected, 25 C.
Experimental: as §1
Assay [3] concerns the target T2, cynomolgus monkey hepcidin-25 (cynomolgus monkey, UniProt A7XEI3 60-84, not fully specified).
T2 construct: mature; also called mature cynomolgous monkey hepcidin
T2 peptide: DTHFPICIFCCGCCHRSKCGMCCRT
The assay is described as follows: SPR (BIAcore), captured Mab, cynomolgus monkey hepcidin-25 injected, 25 C.
Experimental: as §1

The target of a further assay is T3, rat hepcidin-25 (rat, UniProt Q99MH3 60-84).
T3 construct: mature
T3 peptide (looked up): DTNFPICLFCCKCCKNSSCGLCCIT
The assay is described as follows: SPR (BIAcore), 25 C.

For a further assay, the target named is T4, mouse hepcidin-25 (mouse, UniProt Q9EQ21 59-83).
T4 construct: mature
T4 peptide (looked up): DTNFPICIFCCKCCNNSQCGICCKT
The assay is described as follows: SPR (BIAcore), captured Mab, mouse hepcidin-25 injected, 25 C.

Assay [4] addresses T2, cynomolgus monkey hepcidin-25. The assay is described as follows: SPR (BIAcore), 25 C.
Experimental: as §1
The target of assay [5] is ferroportin C-terminally fused with green fluorescent protein (human), Q9NP59. The assay is described as follows: cell-based or functional assay.
ferroportin C-terminally fused with green fluorescent protein (human), Q9NP59, sequence (Q9NP59 whole entry, the tested form may be a part): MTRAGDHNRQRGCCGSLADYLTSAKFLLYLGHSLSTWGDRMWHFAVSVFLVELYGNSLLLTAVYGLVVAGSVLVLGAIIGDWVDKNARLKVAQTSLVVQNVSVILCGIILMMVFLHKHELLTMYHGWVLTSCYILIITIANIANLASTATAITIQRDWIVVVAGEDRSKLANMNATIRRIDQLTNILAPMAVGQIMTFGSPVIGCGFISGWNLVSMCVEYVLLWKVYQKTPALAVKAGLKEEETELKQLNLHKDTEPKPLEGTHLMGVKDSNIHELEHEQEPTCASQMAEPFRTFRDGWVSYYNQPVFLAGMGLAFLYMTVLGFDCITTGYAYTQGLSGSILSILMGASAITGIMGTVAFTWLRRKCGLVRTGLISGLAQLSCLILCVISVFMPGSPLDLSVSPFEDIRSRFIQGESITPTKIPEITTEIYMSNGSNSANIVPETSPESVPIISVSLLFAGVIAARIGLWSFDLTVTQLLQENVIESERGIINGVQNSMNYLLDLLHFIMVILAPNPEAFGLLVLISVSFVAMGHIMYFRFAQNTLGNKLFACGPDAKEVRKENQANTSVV

Substitutions are numbered along the chain they refer to. Where no end group is shown, it is not given here.

The results in this text go back to patent US20090136495A1 (Eli Lilly, published 2009).

Experimental for mouse hepcidin-25: as §1
Experimental for rat hepcidin-25: as §1

B1: Fab 3.12 (Fab, V domains shown)
VH: QVQLVQSGAEVKKPGSSVKVSCKASGYTFLIYPISWVRQAPGQGLEWMGNFHPYLGVTNYLEKFKGRVTITADKSTSTAYMELSSLRSEDTAVYYCARGGTGSFDYWGQGTTVTVSS
VL: DIQMTQSPSSLSASVGDRVTITCSASSRVSSTYLFWYQQKPGKAPKLLIYRTSTLTSGVPSRFSGSGSGTDFTLTISSLQPEDFATYYCQQWSGYPFVFGGGTKVEIK
notes: Fab with human kappa, from E. coli periplasm; frameworks O2 and VH1-69
In the assay with human hepcidin-25 [1], B1 showed a Kd of 0.0883 nM, a koff of 0.000347 s⁻¹ and a kon of 3.94e+06 M⁻¹ s⁻¹.

B2: Mab 3.23 (antibody, human IgG4 S228P, kappa, V domains shown)
VH: B1 VH with L61V
VL: DIQMTQSPSSLSASVGDRVTITCSASSRVSSTYLFWYQQKPGKAPKLLIYRTSPLASGVPSRFSGSGSGTDFTLTISSLQPEDFATYYCQQWSGYPFVFGGGTKVEIKR
In the assay with human hepcidin-25 [2], B2 registered a Kd of 0.0994 nM, a dissociation rate constant (koff) of 0.000659 s⁻¹ and a kon of 6.2e+06 M⁻¹ s⁻¹. In assay [3], this molecule registered a Kd of 0.0888 nM, a koff of 0.000577 s⁻¹ and a kon of 6.51e+06 M⁻¹ s⁻¹. Moreover, in the assay with rat hepcidin-25, the binding result was “no binding”. In the assay with mouse hepcidin-25, this molecule returned a Kd of 50.1 nM, an off-rate (koff) of 0.192 s⁻¹ and a kon of 3.83e+06 M⁻¹ s⁻¹.

B3: Fab Hu22 (Fab, V domains shown)
VH: B1 VH with L30T, V57D, L61N
VL: B1 VL with T56A, V98T
notes: as for B1
In the assay with human hepcidin-25 [1], B3 registered a Kd of 0.647 nM, a koff of 0.00456 s⁻¹ and a kon of 7.05e+06 M⁻¹ s⁻¹.

B4: Fab 1.7 (Fab, V domains shown)
VH: B1 VH with L30T, V57D, N59R, L61V
VL: B1 VL with T56V
notes: Fab with human kappa
In the case of B4, in the assay with human hepcidin-25 [1], binding was put at a Kd of 0.422 nM, the koff turned out to be 0.00148 s⁻¹ and the kon came out at 3.8e+06 M⁻¹ s⁻¹.

B5: Mab L1.5 (antibody, human IgG4 S228P, kappa, V domains shown)
VH: B1 VH
VL: B2 VL with S26E, V98T
In the assay with human hepcidin-25 [2], B5 showed a Kd of 0.0342 nM, a koff of 0.000182 s⁻¹ and a kon of 5.31e+06 M⁻¹ s⁻¹.

B6: Mab 3.8 (antibody, human IgG4, V domains shown)
VH: B1 VH
VL: B2 VL with V98T
notes: Human engineered Mab, human IgG4
In the assay with human hepcidin-25 [2], B6 displayed a Kd of 0.105 nM, a koff of 0.000768 s⁻¹ and a kon of 5.58e+06 M⁻¹ s⁻¹. In assay [3], this molecule came in with a Kd of 0.00933 nM, a koff of 0.00066 s⁻¹ and a kon of 7.07e+07 M⁻¹ s⁻¹. The “fold lower KD than for human hepcidin-25” value in assay [4] was above 10 fold. In the assay with mouse hepcidin-25, this molecule came in with a Kd of 34.6 nM, a koff of 0.124 s⁻¹ and a kon of 3.57e+06 M⁻¹ s⁻¹.

B7: Fab 3.23 (Fab, V domains shown)
VH: B1 VH with L61V
VL: B1 VL with T54P, T56A
notes: as for B1
In the assay with human hepcidin-25 [1], B7 had a dissociation constant Kd of 0.0788 nM, a koff of 0.000278 s⁻¹ and an on-rate (kon) of 3.53e+06 M⁻¹ s⁻¹.

B8: Mab Hu22 (antibody, human IgG4 S228P, kappa, V domains shown)
VH: B1 VH with L30T, V57D, L61N
VL: B2 VL with P54T, V98T
As to B8, in the assay with human hepcidin-25 [2], the Kd was 0.764 nM, the koff was determined as 0.00864 s⁻¹ and the kon was determined as 1.09e+07 M⁻¹ s⁻¹. In assay [3], this molecule came in with a Kd of 0.986 nM, a koff of 0.00816 s⁻¹ and a kon of 8.13e+06 M⁻¹ s⁻¹. The binding result with rat hepcidin-25 is on record as “no binding”. In the assay with mouse hepcidin-25, this molecule had a Kd of 77.6 nM, a koff of 0.126 s⁻¹ and a kon of 1.62e+06 M⁻¹ s⁻¹.

B9: Mab 3.12 (antibody, human IgG4 S228P, kappa, V domains shown)
VH: B1 VH
VL: B2 VL with P54T, A56T
Consider B9, for which, in the assay with human hepcidin-25 [2], the Kd stood at 0.0599 nM, the koff worked out at 0.00022 s⁻¹ and the kon turned out to be 3.68e+06 M⁻¹ s⁻¹.
Molecule DTHFPICIFCCGCCHRSKCGMCCKT (ends and bridges not checked; cysteine pairing not given here) [human hepcidin-25] showed a hepcidin-induced internalization and degradation of ferroportin (FPN-GFP fluorescence in HEK 293 cells), concentration of maximal effect in assay [5] of 0.5 µM.
